Experimental data as given in patent US20170137467A1 (CHROMOTEK, published 2017).
Where a chain is given by its changes, count along the chain named. Square brackets hold non-standard residues; d marks the D form. GABA = NCCCC(=O)O

T1: BC2T V7N (human)
T1 construct: position 7 library, row N
T1 peptide: Ac-PDRKAANSHWQQ-NH2

T2: BC2T A5W (human)
T2 construct: position 5 library, row W
T2 peptide: Ac-PDRKWAVSHWQQ-NH2

T3: BC2T V7S (human)
T3 construct: position 7 library, row S
T3 peptide: Ac-PDRKAASSHWQQ-NH2

T4: BC2T R3T (human)
T4 construct: position 3 library (BC2TR3X), row T
T4 peptide: Ac-PDTKAAVSHWQQ-NH2

T5: BC2T V7H (human)
T5 construct: position 7 library, row H
T5 peptide: Ac-PDRKAAHSHWQQ-NH2

T6: BC2T P1K (human)
T6 construct: position 1 library, row K
T6 peptide: Ac-KDRKAAVSHWQQ-NH2

T7: BC2T V7Q (human)
T7 construct: position 7 library, row Q
T7 peptide: Ac-PDRKAAQSHWQQ-NH2

T8: BC2T A6Q (human)
T8 construct: position 6 library (BC2TA6X), row Q
T8 peptide: Ac-PDRKAQVSHWQQ-NH2

T9: BC2T R3S (human)
T9 construct: position 3 library (BC2TR3X), row S
T9 peptide: Ac-PDSKAAVSHWQQ-NH2

T10: BC2T K4R (human)
T10 construct: position 4 library, row R
T10 peptide: Ac-PDRRAAVSHWQQ-NH2

T11: BC2T D2C(Abu) (human, SMILES …)
T11 construct: position 2 library, row C(Abu) / C*
T11 peptide: Ac-P[GABA]RKAAVSHWQQ-NH2

T12: BC2T A5R (human)
T12 construct: position 5 library, row R
T12 peptide: Ac-PDRKRAVSHWQQ-NH2

T13: BC2T D2Y (human)
T13 construct: position 2 library, row Y
T13 peptide: Ac-PYRKAAVSHWQQ-NH2

T14: BC2T K4S (human)
T14 construct: position 4 library, row S
T14 peptide: Ac-PDRSAAVSHWQQ-NH2

T15: BC2T V7C(Abu) (human, also: Abu described as gamma-amino butyric acid)
T15 construct: position 7 library, row C(Abu) / C*
T15 peptide: Ac-PDRKAA[GABA]SHWQQ-NH2

T16: BC2T D2F (human)
T16 construct: position 2 library, row F
T16 peptide: Ac-PFRKAAVSHWQQ-NH2

T17: BC2T P1C(Abu) (human, SMILES …)
T17 construct: position 1 library, row C(Abu) / C*
T17 peptide: Ac-[GABA]DRKAAVSHWQQ-NH2

T18: BC2T R3P (human)
T18 construct: position 3 library (BC2TR3X), row P
T18 peptide: Ac-PDPKAAVSHWQQ-NH2

T19: BC2T A6T (human)
T19 construct: position 6 library (BC2TA6X), row T
T19 peptide: Ac-PDRKATVSHWQQ-NH2

T20: BC2T A6S (human)
T20 construct: position 6 library (BC2TA6X), row S
T20 peptide: Ac-PDRKASVSHWQQ-NH2

T21: BC2T R3C(Abu) (human, SMILES …)
T21 construct: position 3 library (BC2TR3X), row C(Abu) / C*
T21 peptide: Ac-PD[GABA]KAAVSHWQQ-NH2

B1: BC2 nanobody (BC2-Nb) (VHH)
VHH: QVQLVESGGGLVQPGGSLTLSCTASGFTLDHYDIGWFRQAPGKEREGVSCINNSDDDTYYADSVKGRFTIFMDNAKDTVYLQMNSLKPEDTAIYYCAEARGCKRGRYEYDFWGQGTQVTVSS
notes: immobilised on agarose/sepharose beads in this assay; also called BC2 nanotrap (immobilised form); not shown: C-terminal 6xHis-tag added by pHEN6 vector
B2: BC2-NbR106S (VHH)
VHH: B1 VHH with R106S
notes: immobilised on beads in this assay; not shown: C-terminal 6xHis-tag added by pHEN6 vector

Assays:
Test in all cases: library pulldown, LC-MS of supernatant; ratio vs GFP-Nb control (0=captured, 1=not captured)
[1] = target: T1, BC2T V7N
Summary of the method: (§1)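 Unbound peptide left in supernatant after 1 h pulldown in PBS/0.01% CHAPS measured by reversed-phase LC-MS (8–30% eluent B gradient, 20 min).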

[2] = target: T2, BC2T A5W
Summary of the method: as §1

[3] = target: T3, BC2T V7S
Summary of the method: as §1

[4] = target: T4, BC2T R3T
Summary of the method: as §1

[5] = target: T5, BC2T V7H
Summary of the method: as §1

[6] = target: T6, BC2T P1K
Summary of the method: as §1

[7] = target: T7, BC2T V7Q
Summary of the method: as §1

[8] = target: T8, BC2T A6Q
Summary of the method: as §1

[9] = target: T9, BC2T R3S
Summary of the method: as §1

[10] = target: T10, BC2T K4R
Summary of the method: as §1

[11] = target: T11, BC2T D2C(Abu)
Summary of the method: as §1

[12] = target: T12, BC2T A5R
Summary of the method: as §1

[13] = target: T13, BC2T D2Y
Summary of the method: as §1

[14] = target: T14, BC2T K4S
Summary of the method: as §1

[15] = target: T15, BC2T V7C(Abu)
Summary of the method: as §1

[16] = target: T16, BC2T D2F
Summary of the method: as §1

[17] = target: T17, BC2T P1C(Abu)
Summary of the method: as §1

[18] = target: T18, BC2T R3P
Summary of the method: as §1

[19] = target: T19, BC2T A6T
Summary of the method: as §1

[20] = target: T20, BC2T A6S
Summary of the method: as §1

[21] = target: T21, BC2T R3C(Abu)
Summary of the method: as §1

| Binder | ratio [1] | ratio [2] | ratio [3] | ratio [4] | ratio [5] | ratio [6] | ratio [7] | ratio [8] | ratio [9] | ratio [10] | ratio [11] | ratio [12] | ratio [13] | ratio [14] | ratio [15] | ratio [16] | ratio [17] | ratio [18] | ratio [19] | ratio [20] | also measured |
| --- | --- | --- | --- | --- | --- | --- | --- | --- | --- | --- | --- | --- | --- | --- | --- | --- | --- | --- | --- | --- | --- |
| B1 | 0.2 | 0 | 0.3 | 0.3 | 0.3 | 0.3 | 0.4 | 1 | 0.6 | 0.1 | 0.1 | 0.2 | 0.1 | 0.3 | 0.2 | 0.2 | 0.1 | 0.8 | 0.2 | 0.5 | ratio [21]: 0.5 |
| B2 | 0.4 | 0.1 | 0.4 | 0.8 | 0.4 | 0.5 | 0.5 | 0.9 | 0.9 | 0.1 | 0.3 | 0.1 | 0.2 | 0.7 | 0.5 | 0.3 | 0.3 | 1 | 0.4 | 0.8 | ratio [21]: 0.9 |
